The results in this text go back to PMC9769556.

A word on the Kd: it is the concentration at which binding is half-saturated.

The test system of series [1] is DrDprA (Deinococcus radiodurans R1 (ATCC 13939)). As to the kind of experiment: EMSA. To be noted: EMSA: 10 mM Tris-HCl pH 7.5, 50 mM NaCl, 1 mM DTT, 10 min at 37 C, 2 nM 32P probe.
In series [2] the target is DNA processing protein A of Deinococcus radiodurans (DrDprA), purified recombinant wild type (D. radiodurans). As to the kind of experiment: SPR; 2.5 uM DrDprA immobilised on a bare gold sensor chip by EDC-NHS chemistry at 20 C (Autolab Esprit); DrRecA 0.5 to 3 uM in the mobile phase, 20 mM Tris pH 7.6, 1 mM MgCl2. In general terms: SPR reads the build-up and loss of mass on a sensor chip optically.

Molecule 167-mer ssDNA came in with a Kd in series [1] of 3.04 µM. Still for that read-out and setting: with 167-bp dsDNA the figure was 3.53 µM.

B1: RecA of Deinococcus radiodurans (DrRecA), purified (natural protein)
chain: MSKDATKEISAPTDAKERSKAIETAMSQIEKAFGKGSIMKLGAESKLDVQVVSTGSLSLDLALGVGGIPRGRITEIYGPESGGKTTLALAIVAQAQKAGGTCAFIDAEHALDPVYARALGVNTDELLVSQPDNGEQALEIMELLVRSGAIDVVVVDSVAALTPRAEIEGDMGDSLPGLQARLMSQALRKLTAILSKTGTAAIFINQVREKIGVMYGNPETTTGGRALKFYASVRLDVRKIGQPTKVGNDAVANTVKIKTVKNKVAAPFKEVELALVYGKGFDQLSDLVGLAADMDIIKKAGSFYSYGDERIGQGKEKTIAYIAERPEMEQEIRDRVMAAIRAGNAGEAPALAPAPAAPEAAEA
As to B1, the Kd in series [2] is 0.293 µM.
